Patent publication US5716622

Molecular target: Stat1α (human)
Assay: co-immunoprecipitation with anti-FLAG M2 from COS cells with or without EGF, blot with Stat1 antiserum

amount of Stat1 coprecipitated, treated cells against untreated cells: 5 fold
Substance: FLAG-tagged Stat3
